Assay results as given in patent CN114560934A.

Molecular target: β-银环蛇毒素 (银环蛇) (UniProt P00617)

B1: β-BGT单克隆抗体株3B10B7 (antibody)
VH: LTMNFGLSWVFLVLTLKGVKCVVQLLESGRGLVKPGGSLKLSCAASGFAFSTYDTSWVRQTPEKRLEWVTYTSRGAGNTYYPDTVKGRFTISRDNAKNTLYVQMSSLKSEDTAMYYCARQSAWSLPIDYWGQGTLVTVSAAKTTPPSVYPLAPVCGG
VL: DIVMTQTPASLAVSLGQRATISYRTSKRVTTSGYSYMHWNQQKPGQPPRLLIYLASILESGVPARFSGSGSGTDFTLNIHPVEEEDAATYYCQHISELIRSEGGPSWKSNGLMLHQLYP
- 检测限: 20 ng/mL

B2: β-BGT单克隆抗体株2B10E7 (antibody)
VH: LTMDFGLSWVFLVLTLKGVKCEVQLVESGGGLVKPGGSLKLSCAASGFAFSTSDISWVRQTPEKRLEWVTYISNGAGNTYNPDTDKGTFTISRDNAKNTLYVQMSSLKSEDTAMYYCARHNASSLQFAYWGQGTLVTVSAVKTTPPSVYPLAPVCGD
VL: DIVLTQSPASLAVSLGQRATISYRDSKSVSRSGYSYMHWNQQKPGQPPRLLIYLVSYLESGVPARFSGSGSGTDFTLNIHPVEEEDAATYYCQHTRELTRSEGGPSWKLNGLMLHQLYP
- 检测限: 20 ng/mL
